Experimental findings from patent US20090215115A1, “SIALYLTR[…] SEQUENCE MOTIFS” (National Research Council of Canada, priority 2004, published 2009) are described below.

This series in a line: α-2,3-sialyltransferase activity assay with capillary electrophoresis detection. The series is classed as biochemical. The settings on record: lysates of E. coli expressing the Cst-I protein; for sialyltransferase activity: acceptor 1 mM Lac-FCHASE, donor 0.2 mM CMP-Neu5Ac, 37° C., pH 7. As to the method: Assays. Protein concentration was determined using the bicinchoninic acid protein assay kit (Pierce, Rockford, Ill.). For all of the enzymatic assays, one unit of activity was defined as the amount of enzyme that generated one […] of product per minute. FCHASE-labelled oligosaccharides are prepared as described in Gilbert et al. (1997) Eur. J. Biochem. 249: 187-194. p-Nitrophenol-glycosides (p-NP-glycosides) were obtained from Sigma-Aldrich.
The -2,3-sialyltransferase activity was assayed at 37° C. using 1 mM Lac-FCHASE (6-(5-fluorescein-carboxamido)-hexanoic acid succimidyl ester), 0.2 mM CMP-Neu5Ac, 50 mM MOPS pH 7, 10 mM MnCl2 and 10 mM MgCl2 in a final volume of 10 μL. After 5 min the reaction mixtures with fluorogenic acceptors were diluted with 10 mM NaOH and analyzed by capillary electrophoresis performed using the separation conditions as described previously (Gilbert et al. (1997) supra.).

B1: Cst-I O:36: α-2,3-sialyltransferase Cst-I from Campylobacter jejuni strain O:36, amino acid sequence of FIG. 2, SEQ ID NO:6 (protein, listed as Campylobacter jejuni)
chain: MTRTRMENELIVSKNMQNIIIAGNGPSLKNINYKRLPREYDVFRCNQFYFEDKYYLGKKIKAVFFNPGVFLQQYHTAKQLILKNEYEIKNIFCSTFNLSFIESNDFLHQFYNFFPDAKLGYEVIENLKEFYAYIKYNEIYFNKRITSGVYMCAIAIALGYKTIYLCGIDFYEGDVIYPFEAMSTNIKTIFPGIKDFKPSNCHSKEYDIEALKLLKSIYKVNIYALCDDSILANHFPLSININNNFTLENKHNNSINDILLTDNTPGVSFYKNQLKADNKIMLDFYNILHSKDNLIKFLNKEIAVLKKQTTQRAKTRIQNHLSYKLGQALIINSKSVLGYLSLPFIILSIVISHKQEQKAYKFKVKKNPNLALPPLETYPDYKEALKEKECFTYKLGEEFIKASKNWYGGGYIKFYFKDVSRLKREIKEK
modifications: sialyltransferase polypeptide sequence from strain O36
In the case of B1, the “transfer of Neu5Ac from CMP-Neu5Ac to an acceptor” value is on record as “catalyze the transfer of Neu5Ac from CMP-Neu5Ac to an acceptor” and the sialyltransferase activity stood at 50.3 mU/ml.

B2: Cst-I O:19: α-2,3-sialyltransferase Cst-I from Campylobacter jejuni strain O:19, amino acid sequence of FIG. 3, SEQ ID NO:8 (protein, listed as Campylobacter jejuni)
chain: MTRTRMENELIVSKNMQNIIIAGNGPSLKNINYKRLPREYDVFRCNQFYFEDKYYLGKKIKAVFFNPGVFLQQYHTAKQLILKNEYEIKNIFCSTFNLPFIESNDFLHQFYNFFPDAKLGYEVIENLKEFYAYIKYNEIYFNKRITSGVYMCAIAIALGYKTIYLCGIDFYEGDVIYPFEAMSTNIKTIFPGIKDFKPSNCHSKEYDIEALKLLKSIYKVNIYALCDDSILANHFPLSININNNFTLENKHNNSINDILLTDNTPGVSFYKNQLKADNKIMLNFYNILHSKDTLIKFLNKEIAVLKKQTTQRAKARIQNHLSYKLGQALIINSKSVLGFLSLPFIILSIVISHKQEQKAYKFKVKKNPNLALPPLETYPDYNEALKEKECFTYKLGEEFIKAGKNWYGEGYIKFIFKDVPRLKREFEKGE
modifications: sialyltransferase polypeptide sequence from strain O19
Regarding B2, the “transfer of Neu5Ac from CMP-Neu5Ac to an acceptor” value is “catalyze the transfer of Neu5Ac from CMP-Neu5Ac to an acceptor” and the sialyltransferase activity is given as 324.9 mU/ml.
